Patent US20210292422A1 (SURROZEN, published 2021)

What was measured:
LRP6e3e4 = molecular target: T1, LRP6e3e4 (UniProt O75581 631-1246); test: column 'Specificity (Clone name)' of the component table; method not given there
T1 construct: domain: e3e4; also called LRP6 E3E4 domain
T1 sequence (looked up): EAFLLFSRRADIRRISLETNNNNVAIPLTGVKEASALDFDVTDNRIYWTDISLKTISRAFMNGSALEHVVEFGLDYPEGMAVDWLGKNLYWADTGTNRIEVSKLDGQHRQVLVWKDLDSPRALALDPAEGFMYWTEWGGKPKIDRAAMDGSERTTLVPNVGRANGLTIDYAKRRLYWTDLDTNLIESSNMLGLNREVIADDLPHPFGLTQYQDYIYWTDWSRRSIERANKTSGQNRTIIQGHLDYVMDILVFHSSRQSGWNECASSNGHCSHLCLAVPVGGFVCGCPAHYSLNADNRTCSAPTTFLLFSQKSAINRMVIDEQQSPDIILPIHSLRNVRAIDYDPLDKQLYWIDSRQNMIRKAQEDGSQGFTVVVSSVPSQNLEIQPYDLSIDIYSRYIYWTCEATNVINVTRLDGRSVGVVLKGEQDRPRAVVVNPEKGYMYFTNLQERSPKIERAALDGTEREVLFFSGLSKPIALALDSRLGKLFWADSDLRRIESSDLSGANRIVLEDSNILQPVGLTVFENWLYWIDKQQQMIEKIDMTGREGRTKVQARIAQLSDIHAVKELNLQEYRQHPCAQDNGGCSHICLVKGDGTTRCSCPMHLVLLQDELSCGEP

Frizzled 7 (Fzd7) = Frizzled 7 (Fzd7) (UniProt O75084 44-163); test: BLI (Octet), FIG. 15A

B1: L2: antiLRP6E3E4 (G211) scFv (scFv)
scFv: EVQLVESGGGLVQPGGSLRLSCAASGFTFTSYYISWVRQAPGKGLEWVAEISPYSGSTYYADSVKGRFTISADTSKNTAYLQMNSLRAEDTAVYYCALRARPPIRLHPRGSVMDYWGQGTLVTVSSGSAASGSSGGSSSGADIQMTQSPSSLSASVGDRVTITCRASQDVSTAVAWYQQKPGKAPKLLIYSASFLYSGVPSRFSGSGSGTDFTLTISSLQPEDFATYYCQQSYTTPPTFGQGTKVEIK
notes: also called YW211.31.57
binding result (LRP6e3e4): binds

B2: F2 (R2H1) (scFv)
scFv: EVQLVESGGGLVQPGGSLRLSCAASGFNISSSYIHWVRQAPGKGLEWVAYIYSSYGSTYYADSVKGRFTISADTSKNTAYLQMNSLRAEDTAVYYCARASWYALDYWGQGTLVTVSSGSAASGSSGGSSSGADIQMTQSPSSLSASVGDRVTITCRASQSVSSAVAWYQQKPGKAPKLLIYSASSLYSGVPSRFSGSRSGTDFTLTISSLQPEDFATYYCQQYWYGVAPITFGQGTKVEIK
notes: also called antiFZD1,2,7
binding result (Frizzled 7 (Fzd7)): binds
